[ ]: non-standard residue; d: D form. pGlu = O=C1CC[C@@H](C(=O)O)N1
Legend:
[1] = molecular target: aCII6 polyclonal antibody against GnRH-II; assay: RIA cross-reactivity with antibody aCII6 (relative to GnRH-II)
[2] = molecular target: KLII-2 antiserum against GnRH-II; assay: RIA cross-reactivity with antiserum KLII-2 (relative to GnRH-II)

B1: Salmon GnRH (sGnRH) (peptide)
peptide: [pGlu]HWSYGWLPG-NH2
SMILES: CC(C)C[C@H](NC(=O)[C@H](Cc1c[nH]c2ccccc12)NC(=O)CNC(=O)[C@H](Cc1ccc(O)cc1)NC(=O)[C@H](CO)NC(=O)[C@H](Cc1c[nH]c2ccccc12)NC(=O)[C@H](Cc1c[nH]cn1)NC(=O)[C@@H]1CCC(=O)N1)C(=O)N1CCC[C@H]1C(=O)NCC(N)=O
In the case of B1, the cross-reactivity [1] is reported as 0.013% and the cross-reactivity [2] is reported as 0.003%.

Reference: patent US20050158309A1
